Laboratory results from PMC9481612, “Molecular architecture of the augmin complex” (Nature Communications, 2022).

Legend:
[1] = target: T1, HAUS5 (human, UniProt O94927 1-633); test: cross-linking; purified augmin^ΔH6C with DSSO at 250:1, 500:1, 750:1 and 1000:1 molar ratio, 1 h on ice; trypsin in gel or in solution, LC-MS/MS, MetaMorpheus, 1% FDR; conditions: both partners purified
T1 construct: HAUS5, human; 633; also called H5; source: High5 insect cells, co-infected with baculoviruses; purified as part of the augmin octamer (StrepII-Trap, Superose 6)
T1 sequence (looked up): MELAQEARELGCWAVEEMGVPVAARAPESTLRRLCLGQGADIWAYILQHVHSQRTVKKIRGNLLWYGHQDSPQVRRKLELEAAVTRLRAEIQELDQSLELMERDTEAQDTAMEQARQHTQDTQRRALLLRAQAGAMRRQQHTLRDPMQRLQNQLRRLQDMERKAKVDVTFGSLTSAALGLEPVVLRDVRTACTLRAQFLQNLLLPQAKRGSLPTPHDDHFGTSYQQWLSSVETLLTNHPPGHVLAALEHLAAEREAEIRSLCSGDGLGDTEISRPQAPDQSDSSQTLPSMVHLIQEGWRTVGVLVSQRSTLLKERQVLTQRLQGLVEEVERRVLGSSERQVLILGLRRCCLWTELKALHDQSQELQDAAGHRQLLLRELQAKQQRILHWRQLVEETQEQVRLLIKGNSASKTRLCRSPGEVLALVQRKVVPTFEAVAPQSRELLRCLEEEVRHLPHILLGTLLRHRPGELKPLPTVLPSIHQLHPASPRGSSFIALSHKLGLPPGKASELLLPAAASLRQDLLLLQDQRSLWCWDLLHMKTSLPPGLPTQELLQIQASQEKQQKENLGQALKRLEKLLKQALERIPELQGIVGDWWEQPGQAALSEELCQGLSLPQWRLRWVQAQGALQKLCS

[2] = target: T2, HAUS6 N-terminal region (a.a. 1–432) (human, UniProt Q7Z4H7 1-432); test: as above; conditions: both partners purified
T2 construct: HAUS6, human, N-terminal region a.a; 1-432 (C-terminal region H6C, a.a. 433-955, deleted); also called H6N; H6 in augmin^ΔH6C; source: High5 insect cells, co-infected with baculoviruses; purified as part of the augmin^ΔH6C octamer (StrepII-Trap, Superose 6)
T2 sequence (looked up): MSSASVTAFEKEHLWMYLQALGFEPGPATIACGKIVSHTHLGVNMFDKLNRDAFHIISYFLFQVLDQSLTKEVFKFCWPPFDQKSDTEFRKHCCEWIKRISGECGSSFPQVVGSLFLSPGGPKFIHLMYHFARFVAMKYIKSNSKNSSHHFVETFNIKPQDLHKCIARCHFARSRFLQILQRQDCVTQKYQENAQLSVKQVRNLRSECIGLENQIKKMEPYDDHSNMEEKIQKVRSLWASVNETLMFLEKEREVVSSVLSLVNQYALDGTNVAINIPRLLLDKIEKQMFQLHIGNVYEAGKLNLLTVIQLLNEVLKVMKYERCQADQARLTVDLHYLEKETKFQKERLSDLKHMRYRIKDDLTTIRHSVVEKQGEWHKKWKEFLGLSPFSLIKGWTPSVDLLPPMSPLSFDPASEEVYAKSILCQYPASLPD

B1: HAUS3 (natural protein, human, UniProt Q68CZ6 1-603, looked up)
chain: MSCGNEFVETLKKIGYPKADNLNGEDFDWLFEGVEDESFLKWFCGNVNEQNVLSERELEAFSILQKSGKPILEGAALDEALKTCKTSDLKTPRLDDKELEKLEDEVQTLLKLKNLKIQRRNKCQLMASVTSHKSLRLNAKEEEATKKLKQSQGILNAMITKISNELQALTDEVTQLMMFFRHSNLGQGTNPLVFLSQFSLEKYLSQEEQSTAALTLYTKKQFFQGIHEVVESSNEDNFQLLDIQTPSICDNQEILEERRLEMARLQLAYICAQHQLIHLKASNSSMKSSIKWAEESLHSLTSKAVDKENLDAKISSLTSEIMKLEKEVTQIKDRSLPAVVRENAQLLNMPVVKGDFDLQIAKQDYYTARQELVLNQLIKQKASFELLQLSYEIELRKHRDIYRQLENLVQELSQSNMMLYKQLEMLTDPSVSQQINPRNTIDTKDYSTHRLYQVLEGENKKKELFLTHGNLEEVAEKLKQNISLVQDQLAVSAQEHSFFLSKRNKDVDMLCDTLYQGGNQLLLSDQELTEQFHKVESQLNKLNHLLTDILADVKTKRKTLANNKLHQMEREFYVYFLKDEDYLKDIVENLETQSKIKAVSLED
notes: HAUS3, human; 603; also called H3; source: High5 insect cells, co-infected with baculoviruses; purified as part of the augmin octamer (StrepII-Trap, Superose 6)
binding result [1]: binds

B2: HAUS8 (natural protein, human, UniProt Q9BT25 1-410, looked up)
chain: MADSSGRGAGKPATGPTNSSSAKKKDKRVQGGRVIESRYLQYEKKTTQKAPAGDGSQTRGKMSEGGRKSSLLQKSKADSSGVGKGDLQSTLLEGHGTAPPDLDLSAINDKSIVKKTPQLAKTISKKPESTSFSAPRKKSPDLSEAMEMMESQTLLLTLLSVKMENNLAEFERRAEKNLLIMCKEKEKLQKKAHELKRRLLLSQRKRELADVLDAQIEMLSPFEAVATRFKEQYRTFATALDTTRHELPVRSIHLEGDGQQLLDALQHELVTTQRLLGELDVGDSEENVQVLDLLSELKDVTAKKDLELRRSFAQVLELSAEASKEAALANQEVWEETQGMAPPSRWYFNQDSACRESGGAPKNTPLSEDDNPGASSAPAQATFISPSEDFSSSSQAEVPPSLSRSGRDLS
notes: HAUS8, human; 410; a.a; 1-138 and 340-410 are not seen in the cryo-EM map; also called H8; source: High5 insect cells, co-infected with baculoviruses; purified as part of the augmin octamer (StrepII-Trap, Superose 6)
binding result [2]: binds
